Source: patent US20240270857A1 (CHIA TAI TIANQING PHARMACEUTICAL GROUP, published 2024)
Substitutions are numbered along the chain they refer to.

T1: IL-36R naturally expressed on OVCAR8 cells and on normal human epidermal keratinocytes (NHK cells) (human, UniProt Q9HB29 20-575)
T1 sequence (looked up): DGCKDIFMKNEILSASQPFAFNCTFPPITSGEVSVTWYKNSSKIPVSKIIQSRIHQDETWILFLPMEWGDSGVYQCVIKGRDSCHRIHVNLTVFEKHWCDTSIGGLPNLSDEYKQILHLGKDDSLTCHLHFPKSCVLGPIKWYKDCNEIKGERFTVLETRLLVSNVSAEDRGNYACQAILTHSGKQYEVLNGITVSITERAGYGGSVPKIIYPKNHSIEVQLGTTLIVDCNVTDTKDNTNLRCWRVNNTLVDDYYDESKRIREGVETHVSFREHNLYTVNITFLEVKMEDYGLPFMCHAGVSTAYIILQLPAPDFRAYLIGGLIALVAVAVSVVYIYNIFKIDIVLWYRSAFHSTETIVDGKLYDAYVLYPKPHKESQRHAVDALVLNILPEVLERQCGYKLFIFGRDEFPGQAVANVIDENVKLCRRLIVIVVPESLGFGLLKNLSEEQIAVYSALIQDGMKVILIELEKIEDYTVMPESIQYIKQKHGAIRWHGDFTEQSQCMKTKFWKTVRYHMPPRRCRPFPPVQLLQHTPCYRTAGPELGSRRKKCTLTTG

T2: Human IL-1Rrp2/IL-1R6 protein, His Tag (ACROBiosystems, IL2-H52H6) (human, UniProt Q9HB29 20-335)
T2 construct: Bought protein; the soluble protein is likely only the extracellular part; also called hIL-36R; human IL36R antigen; not shown: His tag
T2 sequence: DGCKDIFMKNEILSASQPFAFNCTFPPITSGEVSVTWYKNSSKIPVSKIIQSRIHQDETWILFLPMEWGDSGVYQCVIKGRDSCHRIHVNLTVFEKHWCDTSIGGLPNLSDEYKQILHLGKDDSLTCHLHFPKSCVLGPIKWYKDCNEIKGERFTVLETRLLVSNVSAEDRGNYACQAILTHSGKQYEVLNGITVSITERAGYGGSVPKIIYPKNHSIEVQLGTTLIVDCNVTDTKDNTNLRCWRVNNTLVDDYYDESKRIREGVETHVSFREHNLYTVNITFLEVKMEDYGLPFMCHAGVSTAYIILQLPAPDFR

B1: hz72C1-1.2 (antibody, human IgG4 S228P, kappa)
heavy: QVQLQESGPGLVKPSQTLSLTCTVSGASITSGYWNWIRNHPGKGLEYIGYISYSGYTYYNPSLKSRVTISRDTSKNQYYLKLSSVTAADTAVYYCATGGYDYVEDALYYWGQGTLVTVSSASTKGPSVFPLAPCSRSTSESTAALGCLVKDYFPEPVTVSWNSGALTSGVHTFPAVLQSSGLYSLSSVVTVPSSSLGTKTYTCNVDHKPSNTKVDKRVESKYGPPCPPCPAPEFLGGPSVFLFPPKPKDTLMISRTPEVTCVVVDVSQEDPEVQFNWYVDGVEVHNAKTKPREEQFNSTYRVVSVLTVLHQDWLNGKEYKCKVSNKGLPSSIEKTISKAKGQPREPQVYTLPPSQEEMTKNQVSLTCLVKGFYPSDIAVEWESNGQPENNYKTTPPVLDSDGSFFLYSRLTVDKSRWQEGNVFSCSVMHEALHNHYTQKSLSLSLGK
light: DIQMTQSPSSLSASVGDRVTITCRASSNVRYMYWYQQKPGKAPKLWIYLTSNLASGVPSRFSGSGSGTSYTLTISSLQPEDFATYYCQQFTTSPYTFGQGTKLEIKRTVAAPSVFIFPPSDEQLKSGTASVVCLLNNFYPREAKVQWKVDNALQSGNSQESVTEQDSKDSTYSLSSTLTLSKADYEKHKVYACEVTHQGLSSPVTKSFNRGEC
notes: Humanized, human IgG4 / kappa
B2: hz72C1-2.3 (antibody, human IgG4 S228P, kappa)
heavy: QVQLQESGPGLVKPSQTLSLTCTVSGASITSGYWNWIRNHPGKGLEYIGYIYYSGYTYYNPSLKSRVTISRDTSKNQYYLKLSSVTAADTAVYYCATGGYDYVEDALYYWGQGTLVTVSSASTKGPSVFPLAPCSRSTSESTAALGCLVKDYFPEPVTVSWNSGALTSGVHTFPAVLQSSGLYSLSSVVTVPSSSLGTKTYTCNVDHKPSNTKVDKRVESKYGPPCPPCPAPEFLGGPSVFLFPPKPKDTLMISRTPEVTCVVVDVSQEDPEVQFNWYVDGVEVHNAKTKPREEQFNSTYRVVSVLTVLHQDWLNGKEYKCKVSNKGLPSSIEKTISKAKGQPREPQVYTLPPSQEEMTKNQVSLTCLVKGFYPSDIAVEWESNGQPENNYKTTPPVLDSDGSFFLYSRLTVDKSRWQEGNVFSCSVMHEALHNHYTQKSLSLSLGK
light: B1 light with F90Y
notes: Humanized, human IgG4 / kappa
B3: hz72C1-2.1 (antibody, human IgG4 S228P, kappa)
heavy: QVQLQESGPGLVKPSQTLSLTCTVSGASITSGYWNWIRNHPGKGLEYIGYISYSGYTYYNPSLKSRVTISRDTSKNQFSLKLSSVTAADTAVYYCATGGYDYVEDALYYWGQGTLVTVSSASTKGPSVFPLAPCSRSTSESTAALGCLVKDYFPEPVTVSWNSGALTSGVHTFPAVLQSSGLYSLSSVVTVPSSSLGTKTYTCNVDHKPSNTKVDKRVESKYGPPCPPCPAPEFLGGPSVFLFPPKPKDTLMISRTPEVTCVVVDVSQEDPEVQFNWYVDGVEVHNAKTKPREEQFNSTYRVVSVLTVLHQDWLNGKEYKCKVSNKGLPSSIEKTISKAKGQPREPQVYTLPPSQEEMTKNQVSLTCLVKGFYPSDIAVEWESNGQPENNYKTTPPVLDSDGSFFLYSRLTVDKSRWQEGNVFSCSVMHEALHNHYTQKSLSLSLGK
light: B1 light with F90Y
notes: Humanized, human IgG4 / kappa
B4: hz72C1-2.2 (antibody, human IgG4 S228P, kappa)
heavy: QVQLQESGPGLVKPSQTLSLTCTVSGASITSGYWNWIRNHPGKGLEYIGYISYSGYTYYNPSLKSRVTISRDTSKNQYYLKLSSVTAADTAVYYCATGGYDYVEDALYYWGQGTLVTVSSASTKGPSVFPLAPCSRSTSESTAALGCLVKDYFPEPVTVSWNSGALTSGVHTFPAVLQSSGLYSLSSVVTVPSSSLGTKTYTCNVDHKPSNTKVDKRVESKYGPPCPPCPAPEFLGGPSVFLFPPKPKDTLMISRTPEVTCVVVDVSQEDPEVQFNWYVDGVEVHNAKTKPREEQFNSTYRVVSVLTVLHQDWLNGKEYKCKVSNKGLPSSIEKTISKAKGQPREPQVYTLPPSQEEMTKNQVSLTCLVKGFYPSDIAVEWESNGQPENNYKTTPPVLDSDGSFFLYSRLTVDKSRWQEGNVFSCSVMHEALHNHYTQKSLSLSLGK
light: B1 light with F90Y
notes: Humanized, human IgG4 / kappa
B5: hz72C1-1.3 (antibody, human IgG4 S228P, kappa)
heavy: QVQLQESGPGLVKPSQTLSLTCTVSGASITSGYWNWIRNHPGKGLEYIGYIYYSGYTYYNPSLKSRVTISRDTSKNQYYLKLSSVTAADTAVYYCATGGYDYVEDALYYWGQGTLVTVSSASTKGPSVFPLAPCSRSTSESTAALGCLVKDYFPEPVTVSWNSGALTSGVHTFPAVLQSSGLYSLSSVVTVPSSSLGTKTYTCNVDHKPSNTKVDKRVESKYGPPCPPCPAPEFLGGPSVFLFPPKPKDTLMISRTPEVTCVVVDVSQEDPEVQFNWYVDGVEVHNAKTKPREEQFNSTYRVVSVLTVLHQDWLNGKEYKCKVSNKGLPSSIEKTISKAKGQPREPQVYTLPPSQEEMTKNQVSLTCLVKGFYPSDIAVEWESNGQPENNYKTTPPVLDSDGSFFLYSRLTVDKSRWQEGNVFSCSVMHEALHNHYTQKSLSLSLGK
light: B1 light
notes: Humanized, human IgG4 / kappa
B6: hz72C1-1.1 (antibody, human IgG4 S228P, kappa)
heavy: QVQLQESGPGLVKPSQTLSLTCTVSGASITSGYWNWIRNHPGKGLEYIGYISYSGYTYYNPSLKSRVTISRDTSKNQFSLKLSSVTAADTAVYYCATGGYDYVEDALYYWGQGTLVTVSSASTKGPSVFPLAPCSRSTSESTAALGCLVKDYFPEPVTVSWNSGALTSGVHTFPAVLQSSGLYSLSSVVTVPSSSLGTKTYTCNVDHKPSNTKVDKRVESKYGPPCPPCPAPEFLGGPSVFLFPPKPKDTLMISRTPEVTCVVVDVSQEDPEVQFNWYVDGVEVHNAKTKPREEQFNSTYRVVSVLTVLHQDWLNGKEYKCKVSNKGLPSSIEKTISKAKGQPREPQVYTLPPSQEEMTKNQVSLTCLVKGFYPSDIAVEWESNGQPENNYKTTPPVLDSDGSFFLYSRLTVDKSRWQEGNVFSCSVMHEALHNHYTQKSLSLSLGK
light: B1 light
notes: Humanized, human IgG4 / kappa; also called humanized 72C1 antibody 1.1
B7: hz84C4-1.2 (antibody, human IgG4 S228P, kappa, V domains shown)
VH: QVQLVQSGAEVKKPGASVKVSCKASGYFFTSYWMNWVRQAPGQGLEWMGYIHPYDSETRYAQKFQGRVTMTVDKSTSTVYMELSSLRSEDTAVYYCASSTTAFAYWGQGTLVTVSS
VL: DIQMTQSPSSLSASVGDRVTITCRASQDIGNALNWYQQKPGKAPKRLIYATSSLDPGVPSRFSGSRSGTDFTLTISSLQPEDFATYYCLQYASSPYTFGQGTKVEIKR
notes: Humanized, human IgG4 / kappa
B8: hz84C4-2.1 (antibody, human IgG4 S228P, kappa, V domains shown)
VH: B7 VH with Y50M
VL: B7 VL with Y36L, F71Y
notes: Humanized, human IgG4 / kappa
B9: hz84C4-1.4 (antibody, human IgG4 S228P, kappa, V domains shown)
VH: B7 VH with F28Y, Y50M, Y60L, Q65K
VL: B7 VL
notes: Humanized, human IgG4 / kappa
B10: hz84C4-1.5 (antibody, human IgG4 S228P, kappa, V domains shown)
VH: B7 VH with A24V, R38N, Y50M, Y60L, Q65K
VL: B7 VL
notes: Humanized, human IgG4 / kappa
B11: hz84C4-1.3 (antibody, human IgG4 S228P, kappa, V domains shown)
VH: B7 VH with Y50M, H52Y
VL: B7 VL
notes: Humanized, human IgG4 / kappa
B12: hz84C4-2.2 (antibody, human IgG4 S228P, kappa, V domains shown)
VH: B7 VH
VL: B7 VL with Y36L, F71Y
notes: Humanized, human IgG4 / kappa
B13: hz84C4-2.3 (antibody, human IgG4 S228P, kappa, V domains shown)
VH: B7 VH with Y50M, H52Y
VL: B7 VL with Y36L, F71Y
notes: Humanized, human IgG4 / kappa

target: T1, IL-36R naturally expressed on OVCAR8 …; assay: cell-based or functional assay

| IC50 (M); hIL36α; IL-8 production | IC50 (M); hIL36αβγ; IL-8 production | IC50 (M); hIL36β; IL-8 production | IC50 (M); hIL36γ; IL-8 production | Maximum inhibition rate %; hIL36α; IL-8 production | Maximum inhibition rate %; hIL36αβγ; IL-8 production | Maximum inhibition rate %; hIL36β; IL-8 production | Maximum inhibition rate %; hIL36γ; IL-8 production | Binder |
| --- | --- | --- | --- | --- | --- | --- | --- | --- |
| 1.19e-10 M | 3.29e-10 M | 4.33e-10 M | 1.14e-10 M | 96.1% | 89.6% | 84.7% | 85.7% | B1 |
| 1.8e-10 M | 4.5e-09 M | 2.67e-09 M | 5.6e-10 M | 82% | 80% | 78.3% | 90.8% | B2 |
| 1.13e-09 M | 1.78e-09 M | 1.41e-09 M | 2.41e-10 M | 93.5% | 84.6% | 82.1% | 94.1% | B3 |
| 2.45e-10 M | 1.49e-09 M | 1.1e-09 M | 1.18e-09 M | 97.3% | 85.3% | 82.5% | 89% | B4 |
| 7.09e-11 M | 3.82e-10 M | 2.4e-10 M | 1.03e-10 M | 97.3% | 90.3% | 90.3% | 93.5% | B5 |
| 2.19e-10 M | 3.72e-10 M | 3.85e-10 M | 1.21e-10 M | 99% | 93.7% | 86.7% | 102% | B6 |

target: T2, Human IL-1Rrp2/IL-1R6 protein, His Tag …; assay: BLI (ForteBio Octet), antibody on ProA sensor, 1:1 model
Procedure: The affinity of anti-IL-36R antibodies to CynoIL36R-ECD mFc and human IL-1Rrp2/IL-IR6 protein, His Tag (ACROBiosystems, IL2-H52H6) was measured by a ForteBio molecular interaction instrument. […] And then the biosensor was used to bind CynoIL36R-ECD mFc or human IL-1Rrp2/IL-1R6 protein, His Tag which was diluted by a gradient (the initial concentration was 200 nM, 2-fold gradient dilution), the response signals were detected in real time using a Fortebio molecular interaction instrument (SARTORIUS, octet red 96e), and association and dissociation curves were obtained. After the completion of dissociation in each cycle, the biosensor was regenerated for the next capture; the procedure was repeated until the affinity of the different anti-IL-36R antibodies for IL-36R was determined. The resulting data were analyzed by Fortebio Data Analysis 11.0 software in a 1:1 (Langmuir) binding model to determine kₐ (kₒₙ) and kd (koff) values, and the dissociation constant KD was calculated by KD=kd/kₐ. The detection method essentially followed the manufacturer's recommendations, and more information could be found at www.fortebio.com.
Affinity, binding and blocking assays for humanized antibodies hz72C1-1.1, hz72C1-1.2, hz72C1-1.3, hz72C1-2.1, hz72C1-2.2 and hz72C1-2.3 as well as hz84C4-1.1, hz84C4-1.2, hz84C4-1.3, hz84C4-1.4, hz84C4-1.5, hz84C4-2.1, hz84C4-2.2, hz84C4-2.3, hz84C4-2.4 and hz84C4-2.5 were performed according to the methods of Example 4, Example 5. Example 6, Example 7 and Example 8.

| Kd | koff | kon | Binder |
| --- | --- | --- | --- |
| 1.61 nM | 0.000161 s⁻¹ | 100000 M⁻¹ s⁻¹ | B7 |
| 1.22 nM | 0.000116 s⁻¹ | 94500 M⁻¹ s⁻¹ | B8 |
| 1.98 nM | 0.000236 s⁻¹ | 119000 M⁻¹ s⁻¹ | B9 |
| 1.34 nM | 0.000134 s⁻¹ | 100000 M⁻¹ s⁻¹ | B10 |
| 0.527 nM | 3.26e-05 s⁻¹ | 61900 M⁻¹ s⁻¹ | B11 |
| 1.55 nM | 0.000142 s⁻¹ | 91500 M⁻¹ s⁻¹ | B12 |
| 0.831 nM | 5.12e-05 s⁻¹ | 61600 M⁻¹ s⁻¹ | B13 |

target: T1, IL-36R naturally expressed on OVCAR8 …; assay: cell-based or functional assay; remark: another data set of the same source

| IC50 (M); hIL36α; IL-8 production | IC50 (M); hIL36αβγ; IL-8 production | IC50 (M); hIL36β; IL-8 production | IC50 (M); hIL36γ; IL-8 production | Maximum inhibition rate %; hIL36α; IL-8 production | Maximum inhibition rate %; hIL36αβγ; IL-8 production | Maximum inhibition rate %; hIL36β; IL-8 production | Maximum inhibition rate %; hIL36γ; IL-8 production | Binder |
| --- | --- | --- | --- | --- | --- | --- | --- | --- |
| 1.02e-10 M | 6.67e-11 M | 9.53e-12 M | 3.42e-12 M | 92.5% | 82.8% | 91.2% | 98.3% | B7 |
| 5.23e-11 M | 4.82e-11 M | 3.18e-11 M | 1.81e-11 M | 99.5% | 107% | 96.8% | 97.5% | B8 |
| 3.71e-11 M | 5.76e-11 M | 3.48e-11 M | 5.01e-12 M | 94.4% | 92.5% | 93.5% | 109% | B9 |
| 2.87e-11 M | 2.77e-11 M | 1.55e-11 M | 1.27e-11 M | 101% | 97% | 101% | 109% | B10 |
| ~2.41e-09 M | ~6.51e-12 M | ~1.43e-09 M | 2.13e-09 M | 16.9% | 40.7% | 19.4% | 57.5% | B11 |
| 8.45e-11 M | 6.63e-11 M | 4.64e-11 M | 6.21e-11 M | 95.1% | 100% | 95.8% | 15% | B12 |
| ~9.24e-13 M | 8.23e-11 M | ~2.73e-11 M | 8.76e-10 M | 44.5% | 33.1% | 23.4% | 57% | B13 |
